Drawing on PMC10873205, this text covers dH for one substance.

In the assay the target is UBR4_(xtal) (UBR4 residues 4,730–5,183) (human) (UniProt Q5T4S7). The assay is described as follows: ITC; UBR4 construct in the cell (74 μM), UBE2A in the syringe at tenfold higher concentration; 25 °C; 0.4 µl then 13 injections of 3 µl; UBE2A into buffer subtracted; single site binding model.
Chain of UBR4_(xtal) (UBR4 residues 4,730–5,183) (human) (Q5T4S7 4730-5183): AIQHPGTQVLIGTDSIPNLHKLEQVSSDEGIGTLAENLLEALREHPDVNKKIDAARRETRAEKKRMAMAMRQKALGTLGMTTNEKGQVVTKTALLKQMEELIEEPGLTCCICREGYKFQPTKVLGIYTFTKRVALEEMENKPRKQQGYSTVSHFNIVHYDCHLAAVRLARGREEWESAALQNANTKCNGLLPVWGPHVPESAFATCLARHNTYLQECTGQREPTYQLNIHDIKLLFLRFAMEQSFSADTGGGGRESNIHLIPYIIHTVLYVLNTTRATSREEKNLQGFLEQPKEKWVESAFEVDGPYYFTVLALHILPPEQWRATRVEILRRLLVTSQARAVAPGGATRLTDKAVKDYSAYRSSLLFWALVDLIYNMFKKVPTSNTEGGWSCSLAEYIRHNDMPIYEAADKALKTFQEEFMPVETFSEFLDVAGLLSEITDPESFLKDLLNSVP

Chain of UBE2A (P49459 whole entry): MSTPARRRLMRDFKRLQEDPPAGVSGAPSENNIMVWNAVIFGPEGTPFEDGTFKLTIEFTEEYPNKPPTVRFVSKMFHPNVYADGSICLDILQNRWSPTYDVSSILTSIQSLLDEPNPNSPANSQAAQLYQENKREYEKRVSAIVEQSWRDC

For the substance “UBE2A (from UniProt P49459 1-152) (enzyme)”, the dH was -13.9 kcal/mol.
